Read-outs that look alike come from different tables or passages of the source. Where no end group is shown, it is not given here. [ ]: non-standard residue; d: D form. pY = N[C@@H](Cc1ccc(OP(=O)(O)O)cc1)C(=O)O

The target of one assay is Vav2 (UniProt P52735). The assay is described as follows: biotin-peptide streptavidin pull-down from lysate. The following applies: reference: non-phosphorylated peptide; sites Y14.
Assay [1] addresses Phospholipase Cγ1 (PLCγ1) (UniProt P19174). Nature of the assay: biotin-peptide streptavidin pull-down from lysate. The following applies: reference: non-phosphorylated peptide; sites Y14.
The target in assay [2] is T1, SH2 domain of SH2D3C (recombinant, on protein microarray) (human, UniProt Q8N5H7 220-319).
T1 chain: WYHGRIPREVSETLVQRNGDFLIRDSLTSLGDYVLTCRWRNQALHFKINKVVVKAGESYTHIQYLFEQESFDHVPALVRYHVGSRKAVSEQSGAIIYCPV

In assay [3] the target is T2, SH2 domain of Grb10 (recombinant, on protein microarray) (human, UniProt Q13322 493-574).
T2 chain: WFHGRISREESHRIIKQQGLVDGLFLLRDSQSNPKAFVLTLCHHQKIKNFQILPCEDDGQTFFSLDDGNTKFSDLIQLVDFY

Assay [4] has as its target T3, SH2 domain of Abl2 (recombinant, on protein microarray) (human, UniProt P42684 173-263).
T3 chain: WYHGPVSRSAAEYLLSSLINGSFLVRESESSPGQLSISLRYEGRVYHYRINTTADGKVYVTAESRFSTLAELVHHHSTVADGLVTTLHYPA

Assay [5] deals with T4, SH2 domain of Abl1 (recombinant, on protein microarray) (human, UniProt P00519 127-217).
T4 chain: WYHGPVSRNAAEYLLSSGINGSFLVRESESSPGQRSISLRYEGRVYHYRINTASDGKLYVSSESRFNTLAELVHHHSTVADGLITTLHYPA

Assay [6] deals with T5, SH2 domain of Grb10 (recombinant, on protein microarray) (human, UniProt Q13322 493-574).
T5 construct: Grb10, human, SH2 domain
T5 sequence (looked up): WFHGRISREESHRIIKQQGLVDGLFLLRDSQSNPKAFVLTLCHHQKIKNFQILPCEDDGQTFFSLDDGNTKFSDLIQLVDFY
The assay is described as follows: peptide or protein array; recombinant human SH2 and PTB domains spotted on protein microarrays; probed in duplicate with eight concentrations of fluorescently labeled peptide, 10 nM to 5 µM; fluorescence fit to a saturation binding equation. The following applies: both partners purified.

Assay [7] deals with T6, SH2 domain of Phospholipase Cγ1 (recombinant, on protein microarray) (human).
T6 chain: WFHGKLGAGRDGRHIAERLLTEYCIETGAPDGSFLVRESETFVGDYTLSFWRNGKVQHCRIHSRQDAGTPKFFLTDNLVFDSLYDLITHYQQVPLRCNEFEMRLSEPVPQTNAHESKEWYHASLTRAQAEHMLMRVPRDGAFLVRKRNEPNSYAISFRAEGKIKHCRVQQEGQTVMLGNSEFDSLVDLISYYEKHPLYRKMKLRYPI
The assay is described as above. The following applies: both partners purified.

Assay [8] addresses T7, SH2 domain of SH2D3C (recombinant, on protein microarray) (human, UniProt Q8N5H7 220-319).
T7 construct: SH2D3C, human, SH2 domain
T7 sequence (looked up): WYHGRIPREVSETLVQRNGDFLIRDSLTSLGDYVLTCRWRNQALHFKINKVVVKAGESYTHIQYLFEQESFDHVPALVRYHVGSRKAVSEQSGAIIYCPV
The assay is described as above. The following applies: both partners purified.

Assay [9] addresses T8, SH2 domain of Abl1 (recombinant, on protein microarray) (human, UniProt P00519 127-217).
T8 construct: Abl1, human, SH2 domain
T8 sequence (looked up): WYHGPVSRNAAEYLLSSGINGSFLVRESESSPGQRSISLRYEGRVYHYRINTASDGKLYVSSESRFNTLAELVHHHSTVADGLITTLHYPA
The description is as above. Conditions: both partners purified.

Assay [10] has as its target T9, SH2 domain of Abl2 (recombinant, on protein microarray) (human, UniProt P42684 173-263).
T9 construct: Abl2, human, SH2 domain
T9 sequence (looked up): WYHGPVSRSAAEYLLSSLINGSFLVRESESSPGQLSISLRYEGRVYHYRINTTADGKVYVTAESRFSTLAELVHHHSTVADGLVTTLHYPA
The assay is described as above. Conditions: both partners purified.

The target in assay [11] is T10, SH2 domain of the RhoA GEF Vav2 (recombinant, on protein microarray) (human, UniProt P52735 673-767).
T10 construct: Vav2, human, SH2 domain
T10 sequence (looked up): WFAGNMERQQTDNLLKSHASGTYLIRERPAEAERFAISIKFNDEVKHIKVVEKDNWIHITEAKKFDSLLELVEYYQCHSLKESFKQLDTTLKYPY
Described as above. The following applies: both partners purified.

Assay [12] deals with T11, SH2 domain of Phospholipase Cγ1 (recombinant, on protein microarray) (human).
T11 chain: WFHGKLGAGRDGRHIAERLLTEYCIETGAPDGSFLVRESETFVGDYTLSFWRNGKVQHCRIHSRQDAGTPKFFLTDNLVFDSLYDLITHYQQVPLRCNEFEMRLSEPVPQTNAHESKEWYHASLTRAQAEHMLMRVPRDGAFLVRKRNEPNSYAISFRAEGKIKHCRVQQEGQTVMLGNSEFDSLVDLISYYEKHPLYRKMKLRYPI
The assay is described as follows: tandem NC SH2 domains.

Another assay deals with T12, RasA1 (Homo sapiens).
T12 chain: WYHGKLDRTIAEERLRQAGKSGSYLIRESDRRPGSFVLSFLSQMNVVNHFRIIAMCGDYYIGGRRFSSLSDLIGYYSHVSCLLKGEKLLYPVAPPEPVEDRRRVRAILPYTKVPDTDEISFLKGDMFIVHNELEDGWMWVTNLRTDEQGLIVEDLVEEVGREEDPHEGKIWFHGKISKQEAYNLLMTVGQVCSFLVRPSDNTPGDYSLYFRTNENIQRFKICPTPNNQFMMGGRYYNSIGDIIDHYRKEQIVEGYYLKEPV

As for “caveolin-1 (Cav1) 7-21 (from UniProt Q03135) pTyr14 peptide”, the “binding against the reference” value (in the assay with Vav2; in [1]) was “stronger” in each case.

B1: fluorescently labeled Tyr14-Cav1 phosphopeptide (residues 5-22 of Cav1, phosphorylated on Tyr14) (peptide, UniProt Q03135 5-22, looked up)
peptide: KYVDSEGHL[pY]TVPIREQG
modifications: also: fluorescent label (position not given here)
notes: caveolin-1 (Cav1), human, residues 5-22; also called Tyr14-Cav1 phosphopeptide (18 amino acids); source: synthetic peptide, purified to >95% by preparative reverse phase HPLC
Turning to B1, the dissociation constant (Kd) – broadly, the concentration at which binding is half-saturated – in assay [2] was 874 nM; in [3] it was 1370 nM; in assay [4] it was 58 nM; in [5] it was 1640 nM; in assay [6], less than 2000 nM; in assay [7], less than 2000 nM. The Kd is less than 2000 nM in [8]; less than 2000 nM in [9]; less than 2000 nM in assay [10]; 222 nM in assay [11]; 482 nM in assay [12].
Regarding KYVDSEGHLYTVPIREQG (also: fluorescent label (position not given here)) [fluorescently labeled non-phosphorylated Cav1 peptide (residues 5-22 of Cav1)], the Kd in the assay with RasA1 came out at 1390 nM.

The record behind these values is publication PMC2927421, “Tyrosine-Phosphorylated Caveolin-1 Blocks Bacterial Uptake by Inducing Vav2-RhoA-Mediated Cytoskeletal Rearrangements” (PLoS Biology, 2010).
